# Data from US20140087995A1 (published 2014).
# Numbered stars: 1 amine (or outer) side, 2 acyl side, 3 side chain; on linkers, the order of the positions; unused ones are H or OH. Bridge positions count the residues as written; N and C are the ends. Square brackets hold non-standard residues; d marks the D form. Side chains are listed from the residue outwards. Ends that are not written are not given here. * marks the point of attachment. C20 diacid = O=C(O)CCCCCCCCCCCCCCCCCCC(=O)*; γGlu = O=C(O)[C@H](CCC(=O)[*:2])N[*:1]
# T1: rat calcitonin receptor (rat, UniProt P32214 25-516)
# T1 construct: whole, on cells; Used as membranes prepared from transiently transfected BHK tk'ts 13 cells (Assay VIII); also called rCTR; rat calcitonin (a) receptor
# T1 sequence (looked up): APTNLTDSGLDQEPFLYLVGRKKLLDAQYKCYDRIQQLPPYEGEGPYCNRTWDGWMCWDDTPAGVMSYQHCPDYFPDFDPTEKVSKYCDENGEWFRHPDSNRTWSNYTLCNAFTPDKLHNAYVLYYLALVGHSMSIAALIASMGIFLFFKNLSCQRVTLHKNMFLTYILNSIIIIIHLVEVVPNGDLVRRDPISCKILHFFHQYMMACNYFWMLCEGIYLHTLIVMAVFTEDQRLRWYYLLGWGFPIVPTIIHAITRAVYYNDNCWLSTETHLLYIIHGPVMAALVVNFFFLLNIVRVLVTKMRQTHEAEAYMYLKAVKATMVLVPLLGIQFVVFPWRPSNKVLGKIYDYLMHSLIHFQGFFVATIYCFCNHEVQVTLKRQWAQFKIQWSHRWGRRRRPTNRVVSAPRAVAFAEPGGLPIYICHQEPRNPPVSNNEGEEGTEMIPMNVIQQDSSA
# T2: rat amylin receptor (rat calcitonin receptor + rat RAMP 3) (rat, UniProt P32214 25-516; Q9JJ73 23-147)
# T2 construct: whole, on cells; Used as membranes prepared from transiently transfected BHK tk'ts 13 cells (Assay VI); also called rAmylin-R; rat amylin 3(a) receptor
# T2 sequence (looked up) 1: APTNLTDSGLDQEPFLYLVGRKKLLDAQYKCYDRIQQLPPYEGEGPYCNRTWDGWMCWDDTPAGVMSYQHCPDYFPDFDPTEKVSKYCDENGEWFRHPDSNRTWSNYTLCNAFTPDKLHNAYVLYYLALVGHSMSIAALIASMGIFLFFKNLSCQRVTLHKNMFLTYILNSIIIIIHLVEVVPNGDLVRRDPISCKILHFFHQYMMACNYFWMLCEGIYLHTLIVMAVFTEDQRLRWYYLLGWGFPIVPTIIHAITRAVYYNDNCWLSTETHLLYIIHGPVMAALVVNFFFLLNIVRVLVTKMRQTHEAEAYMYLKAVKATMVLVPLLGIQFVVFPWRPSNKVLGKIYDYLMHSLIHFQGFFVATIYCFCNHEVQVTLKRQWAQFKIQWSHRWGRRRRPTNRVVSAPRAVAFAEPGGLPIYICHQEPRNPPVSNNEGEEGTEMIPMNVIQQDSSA
# T2 sequence (looked up) 2: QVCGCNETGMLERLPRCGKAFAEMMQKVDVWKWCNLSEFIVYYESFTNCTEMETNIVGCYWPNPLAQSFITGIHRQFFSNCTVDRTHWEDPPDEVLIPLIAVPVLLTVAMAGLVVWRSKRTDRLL
# T3: human amylin receptor (amylin 3(a) receptor: human calcitonin receptor co-expressed with RAMP-3) (human, UniProt P30988 25-474; O60896 24-148, limits assumed)
# T3 construct: whole, on cells; also called hAmylin-R; hAmylinR
# T3 sequence (looked up) 1: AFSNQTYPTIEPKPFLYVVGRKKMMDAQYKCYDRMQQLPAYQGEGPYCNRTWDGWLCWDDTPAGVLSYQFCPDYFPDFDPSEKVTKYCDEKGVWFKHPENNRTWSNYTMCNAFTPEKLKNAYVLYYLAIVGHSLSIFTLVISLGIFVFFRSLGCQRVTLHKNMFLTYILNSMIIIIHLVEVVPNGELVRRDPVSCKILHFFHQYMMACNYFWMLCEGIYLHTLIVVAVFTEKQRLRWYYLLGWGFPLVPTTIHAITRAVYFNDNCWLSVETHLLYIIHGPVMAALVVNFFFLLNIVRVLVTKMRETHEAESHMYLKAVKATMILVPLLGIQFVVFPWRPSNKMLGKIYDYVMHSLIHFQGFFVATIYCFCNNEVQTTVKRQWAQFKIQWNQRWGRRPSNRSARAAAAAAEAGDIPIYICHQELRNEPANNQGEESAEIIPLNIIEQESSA
# T3 sequence (looked up) 2: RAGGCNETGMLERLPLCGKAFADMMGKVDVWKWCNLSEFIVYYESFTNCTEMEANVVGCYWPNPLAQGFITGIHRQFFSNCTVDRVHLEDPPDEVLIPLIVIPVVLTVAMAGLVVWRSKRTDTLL
# How the values were obtained:
# rat calcitonin receptor = target: T1, rat calcitonin receptor; test: SPA competition binding, displacement of 125I-calcitonin from membranes of BHK tk'ts 13 cells with rat calcitonin receptor (Assay VIII)
# [1] = target: T2, rat amylin receptor (rat calcitonin …); test: SPA competition binding, displacement of 125I-rat amylin from membranes of BHK tk'ts 13 cells with rat calcitonin receptor + rat RAMP 3 (Assay VI)
# [2] = target: T3, human amylin receptor (amylin 3(a) …); test: SPA competition binding, membranes of Amylin 3(a)/CRE-luc BHK cells, displacement of 125I-rat amylin (Assay V)
# Summary of the method: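 One-site competition analysis of SPA counts yielded IC₅₀ as a measure of affinity. Membranes were at 35 ng/μL final; incubation was 120 min at 25° C, pH 7.4.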
Binder,IC50 (rat calcitonin receptor) [nM],IC50 [1] [nM],IC50 [2] [nM]
"K([γGlu-γGlu-C20 diacid])CNTATCATQRLA[dD]FLRHSSPNFGAIPSSTNVGSRTY-NH2 (disulfide 2-7 (inferred), Residue 14 is the D-isomer of Asp)",536,1.69,–
K([γGlu-γGlu-C20 diacid])CNTATCATQRLAEFLRHSSPNFGAIPSSTNVGPETP-NH2 (disulfide 2-7; N-terminus assumed; SMILES CC[C@H](C)[C@H](NC(=O)[C@H](C)NC(=O)CNC(=O)[C@H](Cc1ccccc1)NC(=O)[C@H](CC(N)=O)NC(=O)[C@@H]1CCCN1C(=O)[C@H](CO)NC(=O)[C@H](CO)NC(=O)[C@H](Cc1c[nH]cn1)NC(=O)[C@H](CCCNC(=N)N)NC(=O)[C@H](CC(C)C)NC(=O)[C@H](Cc1ccccc1)NC(=O)[C@H](CCC(=O)O)NC(=O)[C@H](C)NC(=O)[C@H](CC(C)C)NC(=O)[C@H](CCCNC(=N)N)NC(=O)[C@H](CCC(N)=O)NC(=O)[C@@H](NC(=O)[C@H](C)NC(=O)[C@@H]1CSSC[C@H](NC(=O)[C@@H](N)CCCCNC(=O)CC[C@H](NC(=O)CC[C@H](NC(=O)CCCCCCCCCCCCCCCCCCC(=O)O)C(=O)O)C(=O)O)C(=O)N[C@@H](CC(N)=O)C(=O)N[C@@H]([C@@H](C)O)C(=O)N[C@@H](C)C(=O)N[C@@H]([C@@H](C)O)C(=O)N1)[C@@H](C)O)C(=O)N1CCC[C@H]1C(=O)N[C@@H](CO)C(=O)N[C@@H](CO)C(=O)N[C@H](C(=O)N[C@@H](CC(N)=O)C(=O)N[C@H](C(=O)NCC(=O)N1CCC[C@H]1C(=O)N[C@@H](CCC(=O)O)C(=O)N[C@H](C(=O)N1CCC[C@H]1C(N)=O)[C@@H](C)O)C(C)C)[C@@H](C)O),–,–,0.533
